First the molecules themselves.
B1: Translationally-controlled tumor protein homolog (Drosophila melanogaster (Fruit fly)), Q9VGS2 (parent)
chain: MKIYKDIITGDEMFADTYKMKLVDDVIYEVYGKLITRQGDDIKLEGANASAEEADEGTDITSESGVDVVLNHRLTECFAFGDKKSYTLYLKDYMKKVLAKLEEKSPDQVDIFKTNMNKAMKDILGRFKELQFFTGESMDCDGMVALVEYREINGDSVPVLMFFKHGLEEEKC
partner: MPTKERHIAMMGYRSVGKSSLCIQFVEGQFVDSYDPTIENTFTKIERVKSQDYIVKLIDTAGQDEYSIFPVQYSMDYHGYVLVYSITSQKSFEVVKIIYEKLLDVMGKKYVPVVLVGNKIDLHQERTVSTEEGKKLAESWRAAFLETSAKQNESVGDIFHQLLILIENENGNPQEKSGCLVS

In one experiment the parent is B1. The conditions noted are these: with rheb_drome Rheb.
On to E12V, for which the “effect of a mutation on the interaction” value is reported as “decreasing interaction strength”.

The variants in another experiment derive from B1. The conditions noted are these: with rheb_drome Rheb. The source holds these as a separate data set.
Regarding E12V, the “effect of a mutation on the interaction” value is reported as “disrupting interaction strength”.

The values above are taken from IntAct's records for PubMed 17301792.
